Measurements as given in the supplement of paper PMC10567573.

B1: INTS3 (parent)
chain: KKREFRFHPIKETVVEEPVDITPY
B2: FANCE (parent)
chain: AQVLMLGQILELPWKEETFLVLQS

Variants of: B1
Assay: protein stability index of a GFP-peptide fusion (GPS, HEK-293T) (PSI 1-6); higher = more stable
Conditions: c terminus: a fixed tail appended
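Also: lentivirally expressed fusions sorted by FACS into six bins by GFP to DsRed ratio, PSI derived from sequencing read proportions per bin multiplied by bin number.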

| Variant | protein stability index |
| --- | --- |
| KKREFRFHPIRETVVEEPVDITPY | 1.88 |
| KRREFRFHPIKETVVEEPVDITPY | 2.29 |
| KKEEFRFHPIKETVVEEPVDITPY | 2.74 |
| KKREFRFMPIKETVVEEPVDITPY | 3.79 |
| KKREFRFHEIKETVVEEPVDITPY | 3.18 |
| KKREFRFHPIKESVVEEPVDITPY | 1.55 |
| KKREFRFHQIKETVVEEPVDITPY | 2.17 |
| KKREFRFHPIKETVVEEPVDITPP | 2.17 |
| KKREFRFHPNKETVVEEPVDITPY | 2.84 |
| KKREFRFHPIKETVVVEPVDITPY | 1.95 |
| KKREFRFHPIKETVVEEPVDITGY | 3.45 |
| KKREFRFHPIKELVVEEPVDITPY | 1.43 |
| KKREFRFHPIKTTVVEEPVDITPY | 1.39 |
| KKREFRFHPKKETVVEEPVDITPY | 2.02 |
| KKREFRFHPIKETVVEEPADITPY | 2.67 |
| KKREFRFHPYKETVVEEPVDITPY | 4.54 |
| KKREFRFHPIKETVVEEPRDITPY | 2.37 |

Variants of: B2
Assay: as above
Conditions: c terminus: a fixed tail appended

| Variant | protein stability index |
| --- | --- |
| CQVLMLGQILELPWKEETFLVLQS | 2.51 |
| DQVLMLGQILELPWKEETFLVLQS | 1.77 |
| EQVLMLGQILELPWKEETFLVLQS | 2.43 |
| GQVLMLGQILELPWKEETFLVLQS | 2.51 |
| HQVLMLGQILELPWKEETFLVLQS | 1.25 |
| IQVLMLGQILELPWKEETFLVLQS | 3.1 |
| KQVLMLGQILELPWKEETFLVLQS | 1.56 |
| LQVLMLGQILELPWKEETFLVLQS | 3.15 |
| MQVLMLGQILELPWKEETFLVLQS | 3.16 |
| NQVLMLGQILELPWKEETFLVLQS | 2.31 |
| QQVLMLGQILELPWKEETFLVLQS | 2.4 |
| RQVLMLGQILELPWKEETFLVLQS | 1.83 |
| TQVLMLGQILELPWKEETFLVLQS | 4.61 |
| VQVLMLGQILELPWKEETFLVLQS | 3.34 |
| WQVLMLGQILELPWKEETFLVLQS | 2.62 |
| AAVLMLGQILELPWKEETFLVLQS | 2.05 |
| ADVLMLGQILELPWKEETFLVLQS | 2 |
| AEVLMLGQILELPWKEETFLVLQS | 2.48 |
| AFVLMLGQILELPWKEETFLVLQS | 1.72 |
| AGVLMLGQILELPWKEETFLVLQS | 2.21 |
| AHVLMLGQILELPWKEETFLVLQS | 2.69 |
| AIVLMLGQILELPWKEETFLVLQS | 3.13 |
| AKVLMLGQILELPWKEETFLVLQS | 2.02 |
| ANVLMLGQILELPWKEETFLVLQS | 3.14 |
| APVLMLGQILELPWKEETFLVLQS | 1.55 |

| Variant | protein stability index |
| --- | --- |
| ASVLMLGQILELPWKEETFLVLQS | 2.87 |
| ATVLMLGQILELPWKEETFLVLQS | 3.45 |
| AYVLMLGQILELPWKEETFLVLQS | 1.82 |
| AQALMLGQILELPWKEETFLVLQS | 3.44 |
| AQDLMLGQILELPWKEETFLVLQS | 1.81 |
| AQELMLGQILELPWKEETFLVLQS | 1.82 |
| AQFLMLGQILELPWKEETFLVLQS | 3.46 |
| AQGLMLGQILELPWKEETFLVLQS | 1.85 |
| AQHLMLGQILELPWKEETFLVLQS | 2.45 |
| AQILMLGQILELPWKEETFLVLQS | 2.75 |
| AQKLMLGQILELPWKEETFLVLQS | 1.32 |
| AQLLMLGQILELPWKEETFLVLQS | 3.37 |
| AQMLMLGQILELPWKEETFLVLQS | 2.09 |
| AQNLMLGQILELPWKEETFLVLQS | 1.97 |
| AQPLMLGQILELPWKEETFLVLQS | 1.56 |
| AQQLMLGQILELPWKEETFLVLQS | 1.72 |
| AQRLMLGQILELPWKEETFLVLQS | 2.92 |
| AQSLMLGQILELPWKEETFLVLQS | 1.95 |
| AQTLMLGQILELPWKEETFLVLQS | 2.01 |
| AQYLMLGQILELPWKEETFLVLQS | 2.82 |
| AQVAMLGQILELPWKEETFLVLQS | 2.02 |
| AQVCMLGQILELPWKEETFLVLQS | 3.01 |
| AQVDMLGQILELPWKEETFLVLQS | 3.76 |
| AQVEMLGQILELPWKEETFLVLQS | 3.28 |
| AQVGMLGQILELPWKEETFLVLQS | 2.25 |

| Variant | protein stability index |
| --- | --- |
| AQVHMLGQILELPWKEETFLVLQS | 1.66 |
| AQVKMLGQILELPWKEETFLVLQS | 2.13 |
| AQVMMLGQILELPWKEETFLVLQS | 3.29 |
| AQVNMLGQILELPWKEETFLVLQS | 2.04 |
| AQVPMLGQILELPWKEETFLVLQS | 2.18 |
| AQVQMLGQILELPWKEETFLVLQS | 2.4 |
| AQVRMLGQILELPWKEETFLVLQS | 2.68 |
| AQVSMLGQILELPWKEETFLVLQS | 2 |
| AQVTMLGQILELPWKEETFLVLQS | 2.7 |
| AQVWMLGQILELPWKEETFLVLQS | 2.28 |
| AQVYMLGQILELPWKEETFLVLQS | 2.82 |
| AQVLALGQILELPWKEETFLVLQS | 2.24 |
| AQVLCLGQILELPWKEETFLVLQS | 1.57 |
| AQVLDLGQILELPWKEETFLVLQS | 1.95 |
| AQVLELGQILELPWKEETFLVLQS | 1.79 |
| AQVLGLGQILELPWKEETFLVLQS | 1.05 |
| AQVLKLGQILELPWKEETFLVLQS | 1.8 |
| AQVLLLGQILELPWKEETFLVLQS | 2.3 |
| AQVLNLGQILELPWKEETFLVLQS | 2.12 |
| AQVLPLGQILELPWKEETFLVLQS | 1.79 |
| AQVLQLGQILELPWKEETFLVLQS | 1.76 |
| AQVLRLGQILELPWKEETFLVLQS | 1.78 |
| AQVLSLGQILELPWKEETFLVLQS | 1.68 |
| AQVLTLGQILELPWKEETFLVLQS | 1.72 |
| AQVLVLGQILELPWKEETFLVLQS | 3.14 |

| Variant | protein stability index |
| --- | --- |
| AQVLWLGQILELPWKEETFLVLQS | 2.56 |
| AQVLYLGQILELPWKEETFLVLQS | 2.58 |
| AQVLMAGQILELPWKEETFLVLQS | 1.48 |
| AQVLMCGQILELPWKEETFLVLQS | 3.67 |
| AQVLMDGQILELPWKEETFLVLQS | 2.3 |
| AQVLMEGQILELPWKEETFLVLQS | 1.44 |
| AQVLMFGQILELPWKEETFLVLQS | 2.61 |
| AQVLMGGQILELPWKEETFLVLQS | 2.17 |
| AQVLMHGQILELPWKEETFLVLQS | 3.74 |
| AQVLMIGQILELPWKEETFLVLQS | 3.28 |
| AQVLMKGQILELPWKEETFLVLQS | 3.18 |
| AQVLMPGQILELPWKEETFLVLQS | 1.53 |
| AQVLMQGQILELPWKEETFLVLQS | 1.63 |
| AQVLMRGQILELPWKEETFLVLQS | 1.13 |
| AQVLMSGQILELPWKEETFLVLQS | 2.7 |
| AQVLMTGQILELPWKEETFLVLQS | 2.23 |
| AQVLMWGQILELPWKEETFLVLQS | 2.46 |
| AQVLMYGQILELPWKEETFLVLQS | 3.4 |
| AQVLMLCQILELPWKEETFLVLQS | 2.25 |
| AQVLMLDQILELPWKEETFLVLQS | 2.12 |
| AQVLMLEQILELPWKEETFLVLQS | 3.09 |
| AQVLMLFQILELPWKEETFLVLQS | 2.22 |
| AQVLMLIQILELPWKEETFLVLQS | 3.43 |
| AQVLMLNQILELPWKEETFLVLQS | 2.85 |
| AQVLMLPQILELPWKEETFLVLQS | 2.51 |

| Variant | protein stability index |
| --- | --- |
| AQVLMLQQILELPWKEETFLVLQS | 2.19 |
| AQVLMLRQILELPWKEETFLVLQS | 4.09 |
| AQVLMLSQILELPWKEETFLVLQS | 2.32 |
| AQVLMLVQILELPWKEETFLVLQS | 2.8 |
| AQVLMLWQILELPWKEETFLVLQS | 3.13 |
| AQVLMLGAILELPWKEETFLVLQS | 2.48 |
| AQVLMLGEILELPWKEETFLVLQS | 1.35 |
| AQVLMLGFILELPWKEETFLVLQS | 2.51 |
| AQVLMLGGILELPWKEETFLVLQS | 4.12 |
| AQVLMLGHILELPWKEETFLVLQS | 2.57 |
| AQVLMLGIILELPWKEETFLVLQS | 4.26 |
| AQVLMLGLILELPWKEETFLVLQS | 3.68 |
| AQVLMLGMILELPWKEETFLVLQS | 2.39 |
| AQVLMLGRILELPWKEETFLVLQS | 2.63 |
| AQVLMLGSILELPWKEETFLVLQS | 2.42 |
| AQVLMLGTILELPWKEETFLVLQS | 2.34 |
| AQVLMLGVILELPWKEETFLVLQS | 3.43 |
| AQVLMLGWILELPWKEETFLVLQS | 2.25 |
| AQVLMLGYILELPWKEETFLVLQS | 3.2 |
| AQVLMLGQALELPWKEETFLVLQS | 3.41 |
| AQVLMLGQCLELPWKEETFLVLQS | 2.36 |
| AQVLMLGQDLELPWKEETFLVLQS | 2.85 |
| AQVLMLGQELELPWKEETFLVLQS | 1.63 |
| AQVLMLGQFLELPWKEETFLVLQS | 3.22 |
| AQVLMLGQGLELPWKEETFLVLQS | 1.73 |

| Variant | protein stability index |
| --- | --- |
| AQVLMLGQHLELPWKEETFLVLQS | 2.26 |
| AQVLMLGQKLELPWKEETFLVLQS | 1.6 |
| AQVLMLGQLLELPWKEETFLVLQS | 3.3 |
| AQVLMLGQMLELPWKEETFLVLQS | 2.82 |
| AQVLMLGQNLELPWKEETFLVLQS | 1.7 |
| AQVLMLGQPLELPWKEETFLVLQS | 2.75 |
| AQVLMLGQQLELPWKEETFLVLQS | 1.68 |
| AQVLMLGQRLELPWKEETFLVLQS | 2.46 |
| AQVLMLGQSLELPWKEETFLVLQS | 2.09 |
| AQVLMLGQTLELPWKEETFLVLQS | 2.91 |
| AQVLMLGQIAELPWKEETFLVLQS | 1.81 |
| AQVLMLGQIDELPWKEETFLVLQS | 1.78 |
| AQVLMLGQIEELPWKEETFLVLQS | 1.94 |
| AQVLMLGQIFELPWKEETFLVLQS | 3.56 |
| AQVLMLGQIGELPWKEETFLVLQS | 2.19 |
| AQVLMLGQIHELPWKEETFLVLQS | 3.55 |
| AQVLMLGQIKELPWKEETFLVLQS | 2.04 |
| AQVLMLGQIMELPWKEETFLVLQS | 2.01 |
| AQVLMLGQINELPWKEETFLVLQS | 1.88 |
| AQVLMLGQIPELPWKEETFLVLQS | 2.35 |
| AQVLMLGQIRELPWKEETFLVLQS | 3.13 |
| AQVLMLGQISELPWKEETFLVLQS | 3 |
| AQVLMLGQITELPWKEETFLVLQS | 2.28 |
| AQVLMLGQIYELPWKEETFLVLQS | 4.15 |
| AQVLMLGQILALPWKEETFLVLQS | 4.02 |

| Variant | protein stability index |
| --- | --- |
| AQVLMLGQILCLPWKEETFLVLQS | 5.4 |
| AQVLMLGQILDLPWKEETFLVLQS | 3.64 |
| AQVLMLGQILFLPWKEETFLVLQS | 3.3 |
| AQVLMLGQILGLPWKEETFLVLQS | 2.17 |
| AQVLMLGQILHLPWKEETFLVLQS | 1.11 |
| AQVLMLGQILILPWKEETFLVLQS | 1.47 |
| AQVLMLGQILKLPWKEETFLVLQS | 2.65 |
| AQVLMLGQILLLPWKEETFLVLQS | 1.81 |
| AQVLMLGQILMLPWKEETFLVLQS | 5.04 |
| AQVLMLGQILPLPWKEETFLVLQS | 3.01 |
| AQVLMLGQILRLPWKEETFLVLQS | 2.01 |
| AQVLMLGQILTLPWKEETFLVLQS | 2.47 |
| AQVLMLGQILVLPWKEETFLVLQS | 3.41 |
| AQVLMLGQILYLPWKEETFLVLQS | 3.17 |
| AQVLMLGQILEAPWKEETFLVLQS | 3.6 |
| AQVLMLGQILECPWKEETFLVLQS | 3.49 |
| AQVLMLGQILEDPWKEETFLVLQS | 2.26 |
| AQVLMLGQILEEPWKEETFLVLQS | 2.39 |
| AQVLMLGQILEFPWKEETFLVLQS | 2.48 |
| AQVLMLGQILEGPWKEETFLVLQS | 3.1 |
| AQVLMLGQILEHPWKEETFLVLQS | 2.4 |
